Data published in patent US20170306015A1 (DEUTSCHES KREBSFORSCHUNGSZENTRUM STIFTUNG DES FFENTLICHEN …, published 2017).

Target: T1, L1-Fc (human L1-Fc protein comprising the ectodomain of L1) (human, UniProt P32004 20-1120)
T1 construct: extracellular domain; also called L1CAM; CD171; not shown: Fc part
Assay: SPR, BIAcore 3000, L1-Fc immobilised on CM5 chip, antibody injected
Procedure: (§1) Affinity to L1 may be determined by methods known in the art, as for example by surface plasmon resonance. The binding analysis for L1-OV52.24 was performed using a BIAcore 3000 equipped with a CM5 sensor chip. Briefly, a BIAcore CM5 chip was activated with EDC/NHS and various levels of L1-Fc were captured onto the activated surface. The remaining active sites were blocked by ethanolamine/HCl. L1-OV52.24 was bound to the L1-Fc surface and allowed to dissociate over time. The association and dissociation phases for each injection over each density surface were subjected to kinetic analysis.
as §1, with “The” for “Affinity to L1 may be determined by methods known in the art, as for example by surface plasmon resonance. The”, “analysis” for “analysis for L1-OV52.24”, “L1-mAb were” for “L1-OV52.24 was”

T1 sequence (P32004 20-1120): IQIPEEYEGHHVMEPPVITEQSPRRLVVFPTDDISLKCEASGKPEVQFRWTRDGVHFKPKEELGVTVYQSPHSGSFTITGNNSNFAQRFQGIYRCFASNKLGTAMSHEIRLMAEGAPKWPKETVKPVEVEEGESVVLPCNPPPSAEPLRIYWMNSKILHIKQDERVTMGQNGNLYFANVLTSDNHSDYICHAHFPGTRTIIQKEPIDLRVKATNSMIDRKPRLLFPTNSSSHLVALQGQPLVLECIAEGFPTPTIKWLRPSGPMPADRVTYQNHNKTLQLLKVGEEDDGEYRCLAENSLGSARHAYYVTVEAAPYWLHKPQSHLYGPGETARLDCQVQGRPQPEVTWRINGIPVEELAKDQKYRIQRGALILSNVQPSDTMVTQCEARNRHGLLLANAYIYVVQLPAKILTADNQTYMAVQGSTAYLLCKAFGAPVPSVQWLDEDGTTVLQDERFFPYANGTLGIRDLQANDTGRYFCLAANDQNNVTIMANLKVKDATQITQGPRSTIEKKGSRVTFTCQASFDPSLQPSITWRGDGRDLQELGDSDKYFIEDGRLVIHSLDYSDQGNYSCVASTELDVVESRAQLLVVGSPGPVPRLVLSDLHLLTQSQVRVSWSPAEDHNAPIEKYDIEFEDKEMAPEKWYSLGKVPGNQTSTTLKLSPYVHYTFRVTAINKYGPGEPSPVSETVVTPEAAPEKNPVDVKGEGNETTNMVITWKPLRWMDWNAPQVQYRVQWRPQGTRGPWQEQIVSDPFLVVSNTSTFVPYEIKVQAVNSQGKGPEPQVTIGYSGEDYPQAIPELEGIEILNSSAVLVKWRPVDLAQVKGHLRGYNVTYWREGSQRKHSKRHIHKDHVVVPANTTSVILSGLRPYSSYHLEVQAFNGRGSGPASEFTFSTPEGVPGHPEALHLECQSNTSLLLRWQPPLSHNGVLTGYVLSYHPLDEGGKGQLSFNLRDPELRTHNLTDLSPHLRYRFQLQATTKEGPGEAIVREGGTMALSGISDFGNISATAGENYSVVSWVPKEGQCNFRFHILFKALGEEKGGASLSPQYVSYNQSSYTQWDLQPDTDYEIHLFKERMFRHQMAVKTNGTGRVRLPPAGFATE

B1: monoclonal antibody L1-OV52.24 (antibody, IgG1, V domains shown)
VH: EVQLQQSGAELVRPGALVKLSCKASGFNIKDYYMQWVKQRPEQGLEWIGWIDPENGKTVFDPKFRGKASISADTSSNTAYLQLSSLTSEDTAVYYCARWNPLAFWGQGTLVTVSS
VL: DIVMTQSQKFMSTSVGDRVSVTCKASQNVGTNVAWYQQKPGHSPKALIYSTSYRYSGVPDRFTGSGSGTDFTLTIRNVQSEDLAEYFCQQYNTYPYTFGGGTKLEIK
notes: also called mAb L1-OV52.24; L1CAM mAb OV52.24
- Kd: 2.41 nM
